Laboratory results as given in the DeepSol protein solubility set.

Experiment: soluble on expression in E. coli; label from the status in PepcDB or PDB records

Soluble on expression in E. coli, not soluble:
VDQFISPEQLQGVIYTDGELQADEMTLEIAELLQSAGPWGQHFPEPLFEGQCRILQQRILAGKHLKLMIQFNDRFELYDAIWFNVDLRTFPDLSIKHAQIVYKLDINEFRGNKNIQLRVESLIPL
MGSDKIHHHHHHMRTEFIPPSVTRAAFRLPTLSRLPPLTALRAFVVAARHASFSRAAEELHVSTAAIGQQVRILETHLGQPLFSRQRGELVLTDAGSTLYPGLADAFETMIGSLSDLMASGSRRQVKVLAEGCFAARWLAPRLGRIVPALGDVDIWIESLEGDAIDLTQFDADCAIVATHGQIPGFIHEPLFADTVSAVCTPDFAARHQLCGEPERLRDISFAMLRGNGGDAAFEWANWLRACRIPLRLSATGPRFSRQTALIEAILSGHGIGLARHSLISDELKSGRLIAAFGTPQPTASRYHLLTSPDRRRLPEIASLLALLREDIRSLEAAA
MGSDKIHHHHHHMKVKSVSEILIYPPDRIVGDLWIVRNWVTKRNYKVSSPTLAILLYCKIPHTVGDILDFFYEKYGIKNELIHLGLKKLMATDLLLEVKQEMDGSNEVFGLEFDNWYKHNWYMALLYHLVSYDYPFIEDYVAKQRMINYSSQEIDSNRYKEYNSQVSYDIPKATEVKIRETNTSKQKCVNFADLLTMASLGYTRVGSLRVYWNGDPLILRTSPSGGSRHPTETYIVAINVEGLESGWYHISVKDSKLEQIKIGGTDPDDLRLLFPTTYVRPDFHVDLILIFTSIFERNMYRYREPRTFRTIHMDVGHLAATTEIICEKLGYKYLVQYSANDEGIEKFLGLSPLKEGYMASMAIGN
MGHHHHHHSHMAIVEHLYQQGMLSVAEELCQESTLNVDLDFKQPFLELNRILEALHEQDLGPALEWAVSHRQRLLELNSSLEFKLHRLHFIRLLAGGPAKQLEALSYARHFQPFARLHQREIQVMMGSLVYLRLGLEKSPYCHLLDSSHWAEICETFTRDACSLLGLSVESPLSVSFASGCVALPVLMNIKAVIEQRQCTGVWNHKDELPIEIELGMKCWYHSVFACPILRQQTSDSNPPIKLICGHVISRDALNKLINGGKLKCPYCPMEQNPADGKRIIF
MIFSDWPWRHWRQVRGEAIALRLNDEQLNWRELCARVDELASGFAVQGVVEDSGVMLRAWNTPQTLLAWLALLQCGARVLPVNPQLPQPLLEELLPNLTLQFALVPDGENTFPALTSLHIQRVEGAHVATWQPTRLCSMTLTSGSTGLPKAAVHTYQAHLASAEGVLSLIPFGDHDDWLLSLPLFHVSGQGIMWRWLYAGARMTVRDKQPLEQMLAGCTHASLVPTQLWRLLVNRSSVSLKAVLLGGAAIPVELTEQAREQGIRCFCGYGLTEFASTVCAKEADGLADVGSPLPGREVKIVNNEVWLRAASMAEGYWRNGQLVSLVNDEGWYATRDRGEMHNGKLTIVGRLDNLFFSGGEGIQTEEVERVIAAHPAVLQVFIVPVADKEFGHRPVAVMEYDHESVDLSEWVKDKLARFQQPVRWLTLPPELKNGGIKISRQALKEWVQRQQ
SLSEGYLSGLEYWNDIHWSCASYNEQVAGEKEEETNSVATLSYSSVDETQVRSLYVSCKSSGKFISSVHSRESQHSRSQRVTVLQTNPNPVFESPNLAAVEICRDASRETYLVPSSCKSICKNYNDLQIAGGQVMAINSVTTDFPSESSFEYGPLLKSSEIPLPMEDSISTQPSDFPQKPIQRYSSYWRITSIKEKSSLQMQNPISNAVLNEYLEQKVVELYKQYIMDTVFHDSSPTQILASELIMTSVDQISLQVSREKNLETSKARDIVFSRLLQLMSTEITEISTPSLHISQYSNVNP
SKDFTWEVGYNITWNDSKITKLTTTFNPDYQGIDAGTNQKHQVGEMPGTFYLYQQVYDENGKPIQNAFVDRNNDGQITEADRYLTHKSPMAKVYMGFSSQFSYKKWDLGFNLRANFGNYVYNGVASGNSTSNNYGGKGFVTNLYNGFQDTGFTLLNTSEQMASDYFLENASFLKMDNITLGYSFQNLFAAKLSGRISASVQNVFTISKYSGLDPECGAIDSNIWPRPRTYTIGLNLNF
MKVEKFKVLLYLKKSGLDKNGKAPIMGRITLNRTMAQFGCKLSCTPKLWNPRESRLDGKSKEAVEVNAKIDKLLLAINSAYESLVERKTDFDAKAIKDLFQCSADTQMTLLKQLDAIIADIESRIGIDYKKGTLPNYQYTRLTLGLFVKKRYGTDDVAFGELDEQFIREYMDFCLDERGLALDTVRHYLAILKKTCRIAFKAGHSERYHFMHFKLPQKKENPPKALTREDFLKIRDLEIPERRKSLALTRDLFLFACYTGTAYADTVSITEENLFRDEEGSLWLKYHRKKNKMLARVKLLPEALAMLEKYKDPTRPTLLPPQEFRVLRGNM
FNDEGEMHLPGQYDMLKARLAKNPGAELLIFIHGWHHNAAPTDDNFVAFQRFHRQMAKTNPGLIGLYIGWRGDQYDPLWLDGSDDPESRVEALDFPTILTSKQVARRVGEHGVRKLLSSLDELHRQGTLGRYILVGHSLGGVVALHA
MLITISVARSENYYCVQVASSEKLEDLIPLFEKFKNMDNVRIEKIGGFYTLRIGFYLNKSDVLKILPEIKEKYRDAFVRVCEYDLSRVVFPKPEKVITLEQQEIEESKTTKENFLMLLEKNIEELKKLTEIIARGNTTKVKPFEKLESTVVEMYKQKEKSYKRAFPLYINGEFRYRGKALTGENLLGDKWYSYLGLKLSFFRRGFADFKYEKERAKFAKLFSEFDIQKEYTYLLAFQSQEEVFLKGLKYELGVVESEKNKTLSLLKDWVKFTESYDKSLGFPYRELIKKEELEGIESVSNGFFLKPMKINVEEFMKYYEKRKKDVEEYLKKFEIKTTDKWFYLRHTDLDVFARYYFAGKDGNTRDFWALGLRFELPIPYIITDLGKVDKLEILSFKERARLSYATTYSFLFDYISRINRNYSNIVNHLEQINVNFLEIEREIYFWKNGLREANYTLILRNLLDTYHRLEQLIYLKYINYVYIQKLIYFMDIKEEEIIRRILDG

Soluble on expression in E. coli, soluble:
MYAMNLARYKYCPDIKEKGLSGSPRLILFTSAECHYSMKKAASFLGIGTENVCFVETDGRGKMIPEELEKQVWQARKEGAAPFLVCATSGTTVLGAFDPLDEIADICERHSLWLHVDASWGGSALMSRKHRKLLHGIHRADSVAWNPHKMLMAGIQCCALLVKDKSDLLKKCYSAKASYLFQQDKFYDVSYDTGDKSIQCSRRPDAFKFWMTWKALGTLGLEERVNRALALSRYLVDEIKKREGFKLLMEPEYANICFWYIPPSLREMEEGPEFWAKLNLVAPAIKERMMKKGSLMLGYQPHRGKVNFFRQVVISPQVSREDMDFLLDEIDLLGKDM
GPGSMERVTYARTGALRSTYAGLPVTKERLVTAAPAKWFPLLTTVPQRVLKSISDSDGVDGSLLGFLPIAFVFEELRKHLSDFTQHAAFLRAVLQWYHQTAGDTLESEIATDKVEIFQPYLPAYRLRVLKEGETVATFNDISRRAVTLMGKDRGINDIPLDHPSCSAQHAALEVNFVHRNSEPFQQRLHTLMQEEYRNINWSSPDEVGKLCAHALQLMREFGGDEDMWLMELQVVDLGSTNGTNLNGELLRPLERATVIEGDVLTFGYSTRKYLIVRA
MEMEKEFEQIDKSGSWAAIYQDIRHEASDFPCRVAKLPKNKNRNRYRDVSPFDHSRIKLHQEDNDYINASLIKMEEAQRSYILTQGPLPNTCGHFWEMVWEQKSRGVVMLNRVMEKGSLKCAQYWPQKEEKEMIFEDTNLKLTLISEDIKSYYTVRQLELENLTTQETREILHFHYTTWPDFGVPESPASFLNFLFKVRESGSLSPEHGPVVVHCSAGIGRSGTFCLADTCLLLMDKRKDPSSVDIKKVLLDMRKFRMGLIATAEQLRFSYLAVIEGAKFIMGDSSVQDQWKELSHEDLEPPPEHIPPPPRPPKRILEPHNGKCREFFPN
MYQHDIGKRSAKVKNVVERGAVKKFAEAIGDPNPIYWDEETGKRSRYGRNIAPPTFPRVFDYGVIEGLKLPAKGLIHGEQHFHYERPLFVGEELYCYAEVKDYFEKQSSMGLLGFLVIANNGEDADGNLIFTSTSTIMINEAVRKAMSV
MSLETVLVPVDFTIEKEDLLGCIGEFKNAGLKKVILLHVVDIHKSQGLAPMFERNAKKRIEDYTGFAEELGLETEALVVVGDIKRTISETADRKNVDAIIMGATAKGFIKGRFLGRTTEHIARSSKKILLVEKYDALKEGKEFYKNACRATFSRVLVPLDFSKESMKAIEQLQEFGGIVKEVLLLHVIDNIKDMDLLDEQREEAKGKLGRIKEQLTGIKSQYLVVEGIPSDEIVKFANIEEATMIMLTSRGKGDLIDLILGSTAESVLRKTIKPVLIIPASKEFDGEEGHHHHHH
MDEKTKKAEEMALSLTRAVAGGDEQVAMKCAIWLAEQRVPLSVQLKPEVSPTQDIRLWVSVEDAQMHTVTIWLTVRPDMTVASLKDMVFLDYGFPPVLQQWVIGQRLARDQETLHSHGVRQNGDSAYLYLLSARNTSLNPQELQRERQLRMLEDLGFKDLTLQPRGPLEPGPPKPGVPQEPGRGQPDAVPEPPPVGWQCPGCTFINKPTRPGCEMCCRARPEAYQVPASYQPDEEERARLAGEEEALRQYQQRKQQQQEGNYLQHVQLDQRSLVLNTEPAECPVCYSVLAPGEAVVLRECLHTFCRECLQGTIRNSQEAEVSCPFIDNTYSCSGKLLEREIKALLTPEDYQRFLDLGISIAENRSAFSYHCKTPDCKGWCFFEDDVNEFTCPVCFHVNCLLCKAIHEQMNCKEYQEDLALRAQNDVAARQTTEMLKVMLQQGEAMRCPQCQIVVQKKDGCDWIRCTVCHTEICWVTKGPRWGPGGPGDTSGGCRCRVNGIPCHPSCQNCH
MEFTGDLGLGHVTIRASTSSNIRSEVLMEGEYGFIGKSIPTDNPAGQRIIFCGGEGTSSTTGAQITLYGANNTDSRRIVYNGDEHLFQSADVKPYNDNVTALGGPSNRFTTAYLGSNPIVTANGERKTEPVVFDDAFLDAWGDVHYIMYQWLDAVQLKGNDARIHFGVIAQQIRDVFIAHGLMDENSTNCRYAVLCYDKYPRMTDTVFSHNEIVEHTDEEGNVTTTEEPVYTEVVIHEEGEEWGVRPDGIFFAEAAYQRRKLERIEARLSALEQK
MVAPGSVTSRLGSVFPFLLVLVDLQYEGAECGVNADVEKHLELGKKLLAAGQLADALSQFHAAVDGDPDNYIAYYRRATVFLAMGKSKAALPDLTKVIQLKMDFTAARLQRGHLLLKQGKLDEAEDDFKKVLKSNPSENEEKEAQSQLIKSDEMQRLRSQALNAFGSGDYTAAIAFLDKILEVCVWDAELRELRAECFIKEGEPRKAISDLKAASKLKNDNTEAFYKISTLYYQLGDHELSLSEVRECLKLDQDHKRCFAHYKQVKKLNKLIESAEELIRDGRYTDATSKYESVMKTEPSIAEYTVRSKERICHCFSKDEKPVEAIRVCSEVLQMEPDNVNALKDRAEAYLIEEMYDEAIQDYETAQEHNENDQQIREGLEKAQRLLKQSQKRDYYKILGVKRNAKKQEIIKAYRKLALQWHPDNFQNEEEKKKAEKKFIDIAAAKEVLSDPEMRKKFDDGEDPLDAESQQGGGGNPFHRSWNSWQGFNPFSSGGPFRFKFHFN
MSLAEYKHILVGVDGSRQAKRALDKAIAVALRNQAELIIVTIMSGGDYVGLGNNTQVGFGYVDQQVMDESRQALEALVDQYRQKAQEAGVERVVTSVFYGHAKVDLAKSLPKEYQADLIMLGATGVNVVERMLLGSTASYVVANAVCDVLVVRTDLHNEGHHHHHH
